Laboratory results published in the Human Domainome abundance scans (Beltran et al. 2025).
± gives the uncertainty stated by the source.

B1: Gamma-crystallin C, residues 91 to 170; numbered along this chain, P07315 (parent)
chain: RLYEREDHKGLMMELSEDCPSIQDRFHLSEIRSLHVLEGCWVLYELPNYRGRQYLLRPQEYRRCQDWGAMDAKAGSLRRV
B2: Transitional endoplasmic reticulum ATPase, residues 26 to 106; numbered along this chain, P55072 (parent)
chain: LIVDEAINEDNSVVSLSQPKMDELQLFRGDTVLLKGKKRREAVCIVLSDDTCSDEKIRMNRVVRNNLRVRLGDVISIQPCP

Variants of: B1
Assay: abundance fitness (aPCA) (normalised: wild type 0, dead -1); higher = more abundant; growth selection in yeast, the domain comes from the species named
Settings: Homo sapiens

Row | Variant | abundance fitness
1 | W67L | -0.951 ± 0.14
2 | W67P | -0.935 ± 0.17
3 | W67Q | -0.681 ± 0.19
4 | W67R | -0.744 ± 0.1
5 | W67S | -0.778 ± 0.11
6 | W67T | -0.612 ± 0.27
7 | G68A | -0.721 ± 0.15
8 | G68C | -0.696 ± 0.48
9 | G68D | -0.679 ± 0.27
10 | G68K | -0.623 ± 0.26
11 | G68L | -0.529 ± 0.092
12 | G68P | -0.784 ± 0.22
13 | G68Q | -0.763 ± 0.2
14 | G68R | -0.764 ± 0.12
15 | G68S | -0.44 ± 0.11
16 | G68T | -1.01 ± 0.28
17 | G68V | -0.985 ± 0.29
18 | A69C | -0.621 ± 0.46
19 | A69D | -0.701 ± 0.42
20 | A69G | -0.196 ± 0.089
21 | A69L | -0.935 ± 0.26
22 | A69M | -0.847 ± 0.15
23 | A69P | -0.968 ± 0.29

Row | Variant | abundance fitness
24 | A69Q | -0.38 ± 0.054
25 | A69R | -0.964 ± 0.29
26 | A69S | -0.074 ± 0.074
27 | A69T | -0.361 ± 0.2
28 | A69V | -0.818 ± 0.22
29 | A69W | -0.668 ± 0.4
30 | M70C | -0.217 ± 0.25
31 | M70D | 0.094 ± 0.14
32 | M70E | 0.034 ± 0.1
33 | M70F | -0.226 ± 0.13
34 | M70G | -0.167 ± 0.062
35 | M70H | 0.049 ± 0.11
36 | M70I | 0.097 ± 0.23
37 | M70K | -0.053 ± 0.15
38 | M70L | -0.063 ± 0.06
39 | M70P | 0.064 ± 0.06
40 | M70R | -0.016 ± 0.039
41 | M70S | -0.052 ± 0.052
42 | M70T | -0.06 ± 0.079
43 | M70V | -0.017 ± 0.083
44 | M70W | -0.257 ± 0.075
45 | M70Y | -0.105 ± 0.14
46 | D71A | -0.483 ± 0.19

Row | Variant | abundance fitness
47 | D71C | -0.029 ± 0.11
48 | D71E | -0.185 ± 0.11
49 | D71F | -0.148 ± 0.099
50 | D71G | -0.165 ± 0.067
51 | D71H | -0.173 ± 0.11
52 | D71I | -0.297 ± 0.18
53 | D71K | -0.126 ± 0.078
54 | D71L | -0.5 ± 0.078
55 | D71M | -0.443 ± 0.23
56 | D71N | -0.173 ± 0.18
57 | D71P | -0.933 ± 0.35
58 | D71R | -0.224 ± 0.066
59 | D71S | -0.015 ± 0.057
60 | D71T | 0.024 ± 0.12
61 | D71W | -0.281 ± 0.085
62 | D71Y | -0.134 ± 0.12
63 | A72F | -0.5 ± 0.12
64 | A72G | -0.118 ± 0.047
65 | A72H | -0.375 ± 0.15
66 | A72I | -0.745 ± 0.23
67 | A72M | -0.997 ± 0.35
68 | A72N | -0.066 ± 0.17
69 | A72P | -0.007 ± 0.063

Row | Variant | abundance fitness
70 | A72R | -0.782 ± 0.093
71 | A72S | -0.058 ± 0.064
72 | A72T | -0.207 ± 0.071
73 | A72V | -0.554 ± 0.15
74 | A72W | -0.365 ± 0.12
75 | A72Y | -0.452 ± 0.26
76 | K73A | -0.069 ± 0.065
77 | K73C | -0.175 ± 0.17
78 | K73E | -0.495 ± 0.14
79 | K73F | -0.368 ± 0.14
80 | K73G | -0.304 ± 0.071
81 | K73H | -0.042 ± 0.18
82 | K73L | -0.185 ± 0.072
83 | K73M | -0.231 ± 0.11
84 | K73N | -0.026 ± 0.15
85 | K73P | -0.628 ± 0.15
86 | K73Q | -0.264 ± 0.16
87 | K73R | 0.017 ± 0.05
88 | K73S | -0.145 ± 0.076
89 | K73T | -0.124 ± 0.087
90 | K73V | -0.18 ± 0.08
91 | K73W | -0.321 ± 0.12
92 | K73Y | -0.295 ± 0.21

Row | Variant | abundance fitness
93 | A74C | -0.177 ± 0.21
94 | A74D | -0.749 ± 0.35
95 | A74E | -0.56 ± 0.13
96 | A74G | -0.454 ± 0.1
97 | A74I | 0.124 ± 0.24
98 | A74L | -0.454 ± 0.086
99 | A74M | -0.836 ± 0.37
100 | A74P | -0.779 ± 0.13
101 | A74Q | -0.797 ± 0.21
102 | A74S | -0.314 ± 0.062
103 | A74T | -0.128 ± 0.045
104 | A74V | 0.036 ± 0.067
105 | A74Y | -0.781 ± 0.45
106 | G75A | -0.607 ± 0.095
107 | G75C | -0.516 ± 0.25
108 | G75D | -0.705 ± 0.21
109 | G75E | -0.984 ± 0.49
110 | G75H | -0.736 ± 0.47
111 | G75L | -0.826 ± 0.27
112 | G75N | -0.767 ± 0.46
113 | G75P | -0.84 ± 0.18
114 | G75Q | -0.746 ± 0.21
115 | G75R | -0.933 ± 0.14

Row | Variant | abundance fitness
116 | G75S | -0.479 ± 0.12
117 | G75T | -0.949 ± 0.43
118 | G75V | -0.815 ± 0.17
119 | G75W | -0.989 ± 0.26
120 | S76A | -0.628 ± 0.14
121 | S76H | -0.735 ± 0.36
122 | S76I | 0.016 ± 0.29
123 | S76P | -0.776 ± 0.19
124 | S76V | -0.773 ± 0.18
125 | L77A | -0.524 ± 0.056
126 | L77C | -0.325 ± 0.16
127 | L77D | -0.94 ± 0.5
128 | L77E | -0.966 ± 0.49
129 | L77F | -0.304 ± 0.15
130 | L77I | 0.011 ± 0.36
131 | L77M | -0.035 ± 0.1
132 | L77R | -1.06 ± 0.31
133 | L77T | -0.626 ± 0.23
134 | L77V | -0.169 ± 0.096
135 | R79S | -0.202 ± 0.29
136 | V80F | -0.1 ± 0.17
137 | V80I | -0.341 ± 0.21

Variants of: B2
Assay: as above
Settings: Homo sapiens

Row | Variant | abundance fitness
138 | A6S | 0.029 ± 0.061
139 | E41P | -0.131 ± 0.1
140 | T31I | -0.235 ± 0.13
141 | G29E | -0.198 ± 0.063
142 | L24P | -0.551 ± 0.099
143 | S53H | -0.102 ± 0.12
144 | E23M | 0.085 ± 0.3
145 | G72P | -0.891 ± 0.21
146 | R61A | 0.059 ± 0.067
147 | R61P | -0.003 ± 0.15
148 | M21Y | -0.516 ± 0.16
149 | Q25L | -0.149 ± 0.046
150 | E41N | -0.383 ± 0.2
151 | P19N | -0.251 ± 0.26
152 | L67G | -0.896 ± 0.1
153 | I75Q | -1.11 ± 0.28
154 | F27P | -0.238 ± 0.084
155 | T31M | -0.004 ± 0.13
156 | F27C | 0.045 ± 0.076
157 | S15R | -0.001 ± 0.038
158 | V46M | -0.376 ± 0.12
159 | E55D | -0.174 ± 0.13
160 | T31P | -0.204 ± 0.076
161 | L1V | -0.003 ± 0.1
162 | L33E | -0.19 ± 0.081
163 | V43L | -0.099 ± 0.066
164 | V63D | 0.029 ± 0.12
165 | M21V | -0.759 ± 0.12
166 | R28H | 0.226 ± 0.17
167 | K37E | -0.035 ± 0.12
